The results in this text go back to paper PMC11783328.

The target in test [1] is BG505 SOSIP.v4.1-GT1.1 (HIV-1 (isolate BG505)) (UniProt Q2N0S6). The test is described as follows: cryo-EM structure.
Test [2] deals with BG505 SOSIP.v4.1 GT1.1 trimer (BG505 SOSIP germline trimer 1.1) (HIV-1 (isolate BG505)) (UniProt Q2N0S6). The test is described as follows: cryo-EM structure.

B1: 21M20 Fab (Fab, V domains shown)
VH: EVQLVESGGGLAKPGGSLRLSCAASGFTFSRSIMHWVRQAPGKGLEWVSTINYAGSTYYADSVRGRFVISRDNSKNTLSLQMNSVRPEDRAVYHCAKDKEGYYSGGYPLWYFDLWGPGTPVTISS
VL: DVQMTQSPSSLSASVGDKVSITCRASQGIADALAWYQQKPGKAPKLLIYGASNLESGVPSRFSGSGSGTDFSLTISSLQAEDFAVYYCQQRNSHPPTFGQGTRVEVK
In the case of B1, the stoichiometry N (Ab:Env trimer) in test [1] is 1.

B2: 21N13 Fab (Fab, V domains shown)
VH: QVQLQESGPGRVKPSETLSLTCAVSDDSFGSSYFYWSWIRQAPGKGLEWIGYIAYSGGVRYNPSLSSRVTISRNIHERQFYLRLTSMTAADTAVYYCARHCEDDYGYYSAAQSYGLDSWGQGIAVTVSP
VL: DIQMTQSPSSLSASVGDRVTITCRTSENVNNCLNWYQQKPGKAPKLLIYRTSTLQRGVPSRFSGTGSGTDYTLTISSLQSEDFGTYYCQHYYGTPLTFGGGTMVDIK
The term stoichiometry N denotes the number of molecules, sites or subunits per partner or assembly. For the molecule B2, in test [2], the stoichiometry N was found to be 3.
